According to article PMC8794819, “Tuning protein half-life in mouse using sequence-defined biopolymers functionalized with lipids” (Proceedings of the National Academy of Sciences of the …, 2022):
Non-standard residues stand in square brackets, D forms with d. alkynyl palmitic acid = FA, attached to pAzF by click chemistry; Phe(4-N3) = [N-]=[N+]=Nc1ccc(C[C@H](N)C(=O)O)cc1

Tests used:
human serum albumin = biological target: T1, human serum albumin (human, UniProt P02768 25-609); assay: SPR; Biacore T200; HSA or MSA immobilised by amine coupling on CM5 chip (∼1,300 to 12,800 RU); ELP-GFP derivatives injected, twofold dilution series ∼0.28 to 60 µM; PBS running buffer; 60-s association, 600-s dissociation; steady-state affinity binding model; mean of four to eight independent measurements; details: both partners purified
T1 construct: serum albumin, human; also called HSA; source: bought: Sigma, catalog #A3782

mouse serum albumin = biological target: T2, mouse serum albumin (mouse, UniProt P07724 25-608); assay: as above; details: both partners purified
T2 construct: serum albumin, mouse, from mouse serum; also called MSA; albumin from mouse serum; source: bought: Sigma, catalog #A3139 (albumin from mouse serum)
T2 sequence (P07724 25-608): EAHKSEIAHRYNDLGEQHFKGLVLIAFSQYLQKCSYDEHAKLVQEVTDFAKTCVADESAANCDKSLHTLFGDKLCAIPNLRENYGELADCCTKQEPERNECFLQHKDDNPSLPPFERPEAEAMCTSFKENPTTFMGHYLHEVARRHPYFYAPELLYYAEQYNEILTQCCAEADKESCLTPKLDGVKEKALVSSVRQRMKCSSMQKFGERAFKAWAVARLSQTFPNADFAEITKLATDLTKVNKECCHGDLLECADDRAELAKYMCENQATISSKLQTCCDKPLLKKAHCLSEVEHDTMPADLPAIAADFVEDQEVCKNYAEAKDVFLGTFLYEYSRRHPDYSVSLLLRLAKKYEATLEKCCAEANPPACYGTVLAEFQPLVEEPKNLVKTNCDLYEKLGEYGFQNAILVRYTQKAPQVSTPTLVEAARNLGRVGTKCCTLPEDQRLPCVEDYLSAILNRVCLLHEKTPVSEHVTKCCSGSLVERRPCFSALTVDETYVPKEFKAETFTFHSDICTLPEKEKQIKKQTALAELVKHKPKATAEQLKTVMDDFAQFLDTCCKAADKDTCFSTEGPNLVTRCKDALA

Kd (human serum albumin): 1640 nM
Kd (mouse serum albumin): 2220 nM
B1: ELP(10FA)-GFP, ISAz treated (other)
chain: VPGAGVPG[Phe(4-N3)](alkynyl palmitic acid)GVPGGGVPGAGVPG[Phe(4-N3)](alkynyl palmitic acid)GVPGGGVPGAGVPG[Phe(4-N3)](alkynyl palmitic acid)GVPGGGVPGAGVPG[Phe(4-N3)](alkynyl palmitic acid)GVPGGGVPGAGVPG[Phe(4-N3)](alkynyl palmitic acid)GVPGGGVPGAGVPG[Phe(4-N3)](alkynyl palmitic acid)GVPGGGVPGAGVPG[Phe(4-N3)](alkynyl palmitic acid)GVPGGGVPGAGVPG[Phe(4-N3)](alkynyl palmitic acid)GVPGGGVPGAGVPG[Phe(4-N3)](alkynyl palmitic acid)GVPGGGVPGAGVPG[Phe(4-N3)](alkynyl palmitic acid)GVPGGG
modifications: not fully specified (C-terminus); also: pAzF coupled to alkynyl palmitic acid by click (triazole)
